Assay results published in publication PMC12145271, “A Lrp/AsnC Family Transcriptional Regulator Lrp Is Essential for the Pathogenicity of Dickeya oryzae”.

T1: Lrp (Dickeya oryzae EC1, UniProt A0AB39ITC9 1-164)
T1 sequence: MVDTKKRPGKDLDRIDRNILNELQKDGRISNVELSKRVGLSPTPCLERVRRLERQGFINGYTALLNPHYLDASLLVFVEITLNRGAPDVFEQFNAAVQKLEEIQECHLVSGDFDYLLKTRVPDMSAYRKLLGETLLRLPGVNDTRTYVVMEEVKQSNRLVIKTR


What was measured:
Lrp [1] = biological target: T1, Lrp; test: EMSA; 1 uM Lrp, 20 fmol probe; conditions: protein: recombinant; tags: GST tag removed with PreScission protease (pGEX-6P-1, BamHI/EcoRI-site primers; N-terminal vector residues may remain); chain copies: 2; label: biotin
Lrp [2] = biological target: T1, Lrp; test: EMSA; conditions: protein: recombinant; tags: GST tag removed with PreScission protease (pGEX-6P-1, BamHI/EcoRI-site primers; N-terminal vector residues may remain); chain copies: 2

Binder	binding result (Lrp [1])	binding result (Lrp [2])
PzmsA(24) (dsDNA) DNA 1: GTGTAATTATGGGCGTGCTCCGGG DNA 2: CCCGGAGCACGCCCATAATTACAC	binds	–
PzmsA(24)PM (dsDNA) DNA 1: GTGTGAAAAGAGTGAGAGACCACG DNA 2: CGTGGTCTCTCACTCTTTTCACAC	–	no binding
